This is an account of results in the supplement of paper PMC11246515.

± gives the standard deviation of the averaged measurements.

This data set can be described thus: total protein half-life in vivo (active degradation + dilution); higher = more stable protein.
The mark [1] stands for this setting: E. coli NCM3722 delta-clpP, growth: N-lim chemostat, doubling time 6 h.
Where [2] appears, read: E. coli NCM3722 delta-hslV, growth: N-lim chemostat, doubling time 6 h.
[3] abbreviates: E. coli NCM3722 delta-lon, growth: N-lim chemostat, doubling time 6 h.
The mark [4] stands for this setting: E. coli NCM3722 delta-smpB, growth: N-lim chemostat, doubling time 6 h.
Where [5] appears, read: wild type E. coli NCM3722, growth: C-lim chemostat, doubling time 3 h.
[6] abbreviates: wild type E. coli NCM3722, growth: C-lim chemostat, doubling time 6 h.
Setting [7] is: wild type E. coli NCM3722, growth: C-lim chemostat, doubling time 12 h.
The mark [8] stands for this setting: wild type E. coli NCM3722, growth: N-lim chemostat, doubling time 6 h.
The mark [9] stands for this setting: wild type E. coli NCM3722, growth: N-lim chemostat, doubling time 12 h.
The mark [10] stands for this setting: wild type E. coli NCM3722, growth: P-lim chemostat, doubling time 6 h.
The mark [11] stands for this setting: wild type E. coli NCM3722, growth: P-lim chemostat, doubling time 12 h.
The mark [12] stands for this setting: E. coli NCM3722 delta-clpP delta-lon delta-hslV, growth: N-lim chemostat, doubling time 6 h.

Regarding “MADWVTGKVTKVQNWTDALFSLTVHAPVLPFTAGQFTKLGLEIDGERVQRAYSYVNSPDNPDLEFYLVTVPDGKLSPRLAALKPGDEVQVVSEAAGFFVLDEVPHCETLWMLATGTAIGPYLSILQLGKDLDRFKNLVLVHAARYAADLSYLPLMQELEKRYEGKLRIQTVVSRETAAGSLTGRIPALIESGELESTIGLPMNKETSHVMLCGNPQMVRDTQQLLKETRQMTKHLRRRPGHMTAEHYW”, the “total protein half-life in vivo” value was 3.93 ± 0.36 h under setting [1]; 4.14 ± 0.33 h under setting [2]; 4.64 ± 0.33 h under setting [3]; 3.83 ± 0.12 h under setting [4]; 2.888 ± 0.0031 h under setting [5]; 5.62 ± 0.29 h under setting [6]. Besides, the “total protein half-life in vivo” value runs as follows: under setting [7], 10.8 ± 0.21 h; under setting [8], 4.29 ± 0.31 h; under setting [9], 6.73 ± 0.41 h; under setting [10], 5.609 ± 0.031 h; under setting [11], 11.3 ± 0.53 h.
With “MTITKLAWRDLVPDTDSYQEIFAQPHLIDENDPLFSDTQPRLQFALEQLLHTRASSSFMLAKAPEESEYLNLIANAARTLQSDAGQLVGGHYEVSGHSIRLRHAVSADDNFATLTQVVAADWVEAEQLFGCLRQFNGDITLQPGLVHQANGGILIISLRTLLAQPLLWMRLKNIVNRERFDWVAFDESRPLPVSVPSMPLKLKVILVGERESLADFQEMEPELSEQAIYSEFEDTLQIVDAESVTQWCRWVTFTARHNHLPAPGADAWPILIREAARYTGEQETLPLSPQWILRQCKEVASLCDGDTFSGEQLNLMLQQREWREGFLAERMQDEILQEQILIETEGERIGQINALSVIEFPGHPRAFGEPSRISCVVHIGDGEFTDIERKAELGGNIHAKGMMIMQAFLMSELQLEQQIPFSASLTFEQSYSEVDGDSASMAELCALISALADVPVNQSIAITGSVDQFGRAQPVGGLNEKIEGFFAICQQRELTGKQGVIIPTANVRHLSLHSELVKAVEEGKFTIWAVDDVTDALPLLLNLVWDGEGQTTLMQTIQERIAQASQQEGRHRFPWPLRWLNWFIPN”, the “total protein half-life in vivo” value is, setting by setting: under setting [12], 6.81 ± 0.57 h; under setting [1], 6.24 ± 0.11 h; under setting [2], 7.24 ± 1.1 h; under setting [3], 6 ± 0.53 h; under setting [4], 6.58 ± 0.43 h; under setting [5], 3.017 ± 0.024 h. Besides, the “total protein half-life in vivo” value runs as follows: under setting [6], 5.99 ± 0.54 h; under setting [7], 9.75 ± 2.2 h; under setting [8], 6.17 ± 0.21 h; under setting [9], 13.7 ± 1.1 h; under setting [10], 6.4 ± 0.075 h; under setting [11], 12.6 ± 1.4 h.
In the case of “MKPTSVIIMDTHPIIRMSIEVLLQKNSELQIVLKTDDYRITIDYLRTRPVDLIIMDIDLPGTDGFTFLKRIKQIQSTVKVLFLSSKSECFYAGRAIQAGANGFVSKCNDQNDIFHAVQMILSGYTFFPSETLNYIKSNKCSTNSSTVTVLSNREVTILRYLVSGLSNKEIADKLLLSNKTVSAHKSNIYGKLGLHSIVELIDYAKLYELI [P0AEL8]”, the “total protein half-life in vivo” value under setting [12] came to 5.67 ± 0.072 h.
In the case of “MMHRLNLNGYEPDRHHEAAVAFCIHAGTDELTSPVHQHRKGQLILALHGAITCTVENALWMVPPQYAVWIPGGVEHSNQVTANAELCFLFIEPSAVTMPTTCCTLKISPLCRELILTLANRTTTQRAEPMTRRLIQVLFDELPQQPQQQLHLPVSSHPKIRTMVEMMAKGPVEWGALGQWAGFFAMSERNLARLIVKETGLSFRQWRQQLQLIMALQGLVKGDTVQKVAHTLGYDSTTAFITMFKKGLGQTPGRYIARLTTVSPQSAKPDPRQ”, the “total protein half-life in vivo” value under setting [12] is 4.97 ± 0.56 h.
Turning to “MFIPSIYLHQQLHYCKTAILNWSRKMALSRQKFTFERLRRFTLPEGKKQTFLWDADVTTLACRATSGAKAFVFQSVYAGKTLRMTIGNINDWKIDDARAEARRLQTLIDTGIDPRIAKAVKIAEAESLQAESRKTKVTFSVAWEDYLQELRTGISAKTKRPYSTRYIADHINLSSRGGESKKRGQGPTSAGPLASLLNLPLSELTPDYIAAWLSTERQNRPTVTAHAYRLLRAFIKWSNYQKKYQGIIPGDLAQDYNVRKMVPVSASKADDCLQKEQLKSWFSAVRSLNNPIASAYLQVLLLTGARREEIASLRWSDVDFKWSSMRIKDKIEGERIIPLTPYVSELLNVLAQSPNSDVNKEGWVFRSNSKSGKIIEPRSAHNRALVLAELPHISLHGLRRSFGTLAEWVEVPTGIVAQIMGHKPSALAEKHYRRRPLDLLRKWHEKIETWILNEAGITIKNNVDMR”, the “total protein half-life in vivo” value amounted to 4.69 ± 0.43 h under setting [12]; 1.01 ± 0.058 h under setting [1]; 1.22 ± 0.19 h under setting [2]; 3.07 ± 0.74 h under setting [3]; 0.692 ± 0.011 h under setting [4]; 0.877 ± 0.072 h under setting [5]. The “total protein half-life in vivo” value worked out at 1.51 ± 0.091 h under setting [6]; 3.01 ± 0.11 h under setting [7]; 1.19 ± 0.41 h under setting [8]; 1.97 ± 0.42 h under setting [9]; 0.516 h under setting [10]; 2.03 ± 0.4 h under setting [11].
As to “MAFTPFPPRQPTASARLPLTLMTLDDWALATITGADSEKYMQGQVTADVSQMAEDQHLLAAHCDAKGKMWSNLRLFRDGDGFAWIERRSVREPQLTELKKYAVFSKVTIAPDDERVLLGVAGFQARAALANLFSELPSKEKQVVKEGATTLLWFEHPAERFLIVTDEATANMLTDKLRGEAELNNSQQWLALNIEAGFPVIDAANSGQFIPQATNLQALGGISFKKGCYTGQEMVARAKFRGANKRALWLLAGSASRLPEAGEDLELKMGENWRRTGTVLAAVKLEDGQVVVQVVMNNDMEPDSIFRVRDDANTLHIEPLPYSLEE [P0ADE8]”, the “total protein half-life in vivo” value under setting [12] worked out at 5.041 ± 0.022 h; the “total protein half-life in vivo” value under setting [1] is 4.7 ± 0.35 h; the “total protein half-life in vivo” value under setting [2] was found to be 5.202 ± 0.032 h; the “total protein half-life in vivo” value under setting [3] was 5.31 ± 0.23 h; the “total protein half-life in vivo” value under setting [4] stood at 4.327 ± 0.0059 h; the “total protein half-life in vivo” value under setting [5] was 2.8172 ± 0.0011 h. Moreover, the “total protein half-life in vivo” value runs as follows: under setting [6], 5.45 ± 0.19 h; under setting [7], 9.03 ± 1.1 h; under setting [8], 5.25 ± 0.67 h; under setting [9], 7.936 ± 0.018 h; under setting [10], 5.54 ± 0.069 h; under setting [11], 11.3 ± 1.9 h.
As for “MKPDAHQVKQFLLNLQDTICQQLTAVDGAEFVEDSWQREAGGGGRSRVLRNGGVFEQAGVNFSHVHGEAMPASATAHRPELAGRSFEAMGVSLVVHPHNPYVPTSHANVRFFIAEKPGADPVWWFGGGFDLTPFYGFEEDAIHWHRTARDLCLPFGEDVYPRYKKWCDEYFYLKHRNEQRGIGGLFFDDLNTPDFDRCFAFMQAVGKGYTDAYLPIVERRKAMAYGERERNFQLYRRGRYVEFNLVWDRGTLFGLQTGGRTESILMSMPPLVRWEYDYQPKDGSPEAALSEFIKVRDWV”, the “total protein half-life in vivo” value is, setting by setting: under setting [12], 5.53 ± 1.4 h; under setting [1], 4.55 ± 0.073 h; under setting [2], 5 ± 0.44 h; under setting [3], 5.01 ± 0.37 h; under setting [4], 4.05 ± 0.34 h; under setting [6], 5.24 ± 0.9 h. The “total protein half-life in vivo” value is, setting by setting: under setting [7], 10.1 ± 0.14 h; under setting [8], 4.29 ± 0.35 h; under setting [9], 7.38 ± 0.34 h; under setting [10], 6.06 ± 0.66 h; under setting [11], 11.7 ± 0.97 h.
